Biological target: SARS-CoV S 2P ectodomain (SARS-CoV (Tor2 strain)) (UniProt P59594)
Assay: cryo-EM structure

Substance: SARS-CoV S 2P ectodomain (from UniProt P59594 14-1190) (domain or fragment)
- stoichiometry N: 3
